Experiments:
Experiment in all cases: co-IP with anti-FLAG, mass spectrometry; lysate of cells with N-FLAG B3GNT2
RPL9 = RPL9 (human, UniProt P32969 1-192)
NPM1 = biological target: T1, NPM1 (human, UniProt P06748 1-294)
T1 construct: also called NP_001341935.1 (+1)

GALNT2 = biological target: T2, GALNT2 (human, UniProt Q10471 1-571, limits assumed)
T2 construct: also called NP_001278795.1 (+1)

GAPDH = biological target: T3, GAPDH (human, UniProt P04406 2-335, limits assumed)
T3 construct: also called NP_001344872.1 (+1)

SLC27A4 = biological target: T4, SLC27A4 (human, UniProt Q6P1M0 1-643)
T4 construct: also called NP_005085.2

MAGT1 = biological target: T5, MAGT1 (human, UniProt Q9H0U3 30-335, limits assumed)
T5 construct: also called NP_115497.4
T5 sequence (looked up): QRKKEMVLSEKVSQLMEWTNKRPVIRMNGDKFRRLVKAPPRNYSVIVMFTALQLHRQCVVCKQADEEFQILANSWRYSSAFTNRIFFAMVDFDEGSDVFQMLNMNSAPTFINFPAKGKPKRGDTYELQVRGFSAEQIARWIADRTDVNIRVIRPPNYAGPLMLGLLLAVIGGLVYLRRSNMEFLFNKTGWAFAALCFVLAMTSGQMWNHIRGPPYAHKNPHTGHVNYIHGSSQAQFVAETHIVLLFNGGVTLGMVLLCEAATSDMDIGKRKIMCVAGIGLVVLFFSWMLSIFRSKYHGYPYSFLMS

SDF4 = biological target: T6, SDF4 (human, UniProt Q9BRK5 37-362)
T6 construct: also called NP_057260.2 (+2)
T6 sequence (looked up): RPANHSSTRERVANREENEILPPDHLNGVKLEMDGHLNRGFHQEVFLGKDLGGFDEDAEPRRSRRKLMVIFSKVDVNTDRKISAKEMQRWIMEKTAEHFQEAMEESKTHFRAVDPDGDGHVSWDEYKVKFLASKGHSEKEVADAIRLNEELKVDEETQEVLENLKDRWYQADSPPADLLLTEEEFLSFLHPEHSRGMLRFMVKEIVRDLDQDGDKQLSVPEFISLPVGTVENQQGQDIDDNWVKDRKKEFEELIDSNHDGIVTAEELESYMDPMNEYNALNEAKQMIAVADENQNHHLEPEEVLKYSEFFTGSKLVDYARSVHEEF

T2 sequence (Q10471 whole entry): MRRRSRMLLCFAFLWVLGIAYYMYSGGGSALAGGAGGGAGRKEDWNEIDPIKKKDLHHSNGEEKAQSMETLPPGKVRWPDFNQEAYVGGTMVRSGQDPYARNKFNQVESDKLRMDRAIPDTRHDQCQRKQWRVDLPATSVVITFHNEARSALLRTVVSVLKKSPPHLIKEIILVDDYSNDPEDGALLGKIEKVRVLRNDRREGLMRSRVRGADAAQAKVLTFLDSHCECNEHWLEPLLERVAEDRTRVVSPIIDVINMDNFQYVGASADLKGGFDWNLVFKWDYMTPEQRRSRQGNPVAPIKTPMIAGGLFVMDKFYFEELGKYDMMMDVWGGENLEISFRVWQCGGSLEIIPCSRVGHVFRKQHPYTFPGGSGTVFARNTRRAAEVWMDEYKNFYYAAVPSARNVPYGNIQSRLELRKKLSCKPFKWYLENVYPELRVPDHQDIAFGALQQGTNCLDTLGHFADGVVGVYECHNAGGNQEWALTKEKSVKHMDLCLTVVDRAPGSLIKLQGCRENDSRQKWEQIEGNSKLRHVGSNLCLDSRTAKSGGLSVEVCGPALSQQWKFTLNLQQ
T4 sequence (Q6P1M0 whole entry): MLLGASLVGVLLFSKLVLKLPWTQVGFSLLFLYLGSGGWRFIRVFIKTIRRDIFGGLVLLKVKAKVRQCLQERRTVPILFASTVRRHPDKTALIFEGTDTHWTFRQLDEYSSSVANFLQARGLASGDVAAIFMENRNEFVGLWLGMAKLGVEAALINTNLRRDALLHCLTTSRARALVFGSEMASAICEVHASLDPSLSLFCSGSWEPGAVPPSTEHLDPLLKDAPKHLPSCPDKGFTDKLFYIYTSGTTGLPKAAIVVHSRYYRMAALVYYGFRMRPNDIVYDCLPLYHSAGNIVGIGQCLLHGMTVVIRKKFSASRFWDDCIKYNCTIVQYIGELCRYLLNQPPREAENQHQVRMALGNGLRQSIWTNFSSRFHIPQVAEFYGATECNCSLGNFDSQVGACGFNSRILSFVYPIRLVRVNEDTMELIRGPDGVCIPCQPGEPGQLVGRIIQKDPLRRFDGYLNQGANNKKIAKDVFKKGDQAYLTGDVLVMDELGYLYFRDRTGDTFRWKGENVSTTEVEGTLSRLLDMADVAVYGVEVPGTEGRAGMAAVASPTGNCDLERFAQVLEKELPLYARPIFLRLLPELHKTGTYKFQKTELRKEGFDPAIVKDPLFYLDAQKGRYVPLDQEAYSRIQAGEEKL
T1 sequence (P06748 whole entry): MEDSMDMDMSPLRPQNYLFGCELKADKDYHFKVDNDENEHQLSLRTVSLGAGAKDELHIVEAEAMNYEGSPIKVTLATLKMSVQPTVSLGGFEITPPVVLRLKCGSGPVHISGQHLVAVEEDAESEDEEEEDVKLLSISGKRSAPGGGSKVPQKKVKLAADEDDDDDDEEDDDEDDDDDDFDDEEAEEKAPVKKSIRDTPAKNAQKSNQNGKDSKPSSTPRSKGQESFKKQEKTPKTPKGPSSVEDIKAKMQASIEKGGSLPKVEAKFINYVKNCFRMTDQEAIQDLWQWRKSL
T3 sequence (P04406 2-335 limits assumed): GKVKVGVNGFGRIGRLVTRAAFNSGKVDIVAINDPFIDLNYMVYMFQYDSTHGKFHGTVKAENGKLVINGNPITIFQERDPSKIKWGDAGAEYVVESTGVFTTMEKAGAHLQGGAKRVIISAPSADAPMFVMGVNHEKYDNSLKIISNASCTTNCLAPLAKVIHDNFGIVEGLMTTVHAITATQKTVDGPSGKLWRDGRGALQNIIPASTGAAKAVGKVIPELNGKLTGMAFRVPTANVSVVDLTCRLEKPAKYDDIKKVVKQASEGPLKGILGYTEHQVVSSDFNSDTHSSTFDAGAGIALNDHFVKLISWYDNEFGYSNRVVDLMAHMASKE

co-IP mass spectrometry count (RPL9): 0 | co-IP mass spectrometry count (NPM1): 0 | co-IP mass spectrometry count (GALNT2): 0 | co-IP mass spectrometry count (GAPDH): 18 | co-IP mass spectrometry count (SLC27A4): 0 | co-IP mass spectrometry count (MAGT1): 0 | co-IP mass spectrometry count (SDF4): 0
B1: N-terminal FLAG tagged B3GNT2 (enzyme, human, UniProt Q9NY97 1-397, looked up)
chain: MSVGRRRIKLLGILMMANVFIYFIMEVSKSSSQEKNGKGEVIIPKEKFWKISTPPEAYWNREQEKLNRQYNPILSMLTNQTGEAGRLSNISHLNYCEPDLRVTSVVTGFNNLPDRFKDFLLYLRCRNYSLLIDQPDKCAKKPFLLLAIKSLTPHFARRQAIRESWGQESNAGNQTVVRVFLLGQTPPEDNHPDLSDMLKFESEKHQDILMWNYRDTFFNLSLKEVLFLRWVSTSCPDTEFVFKGDDDVFVNTHHILNYLNSLSKTKAKDLFIGDVIHNAGPHRDKKLKYYIPEVVYSGLYPPYAGGGGFLYSGHLALRLYHITDQVHLYPIDDVYTGMCLQKLGLVPEKHKGFRTFDIEEKNKNNICSYVDLMLVHSRKPQEMIDIWSQLQSAHLKC
notes: Bait of the co-IP; pulled down with mouse anti-FLAG (Millipore Sigma F3165) from cell lysate; also called N-FLAG B3GNT2; N-term FLAG; not shown: N-terminal FLAG tag

Reference: US20240261333A1 (published 2024)
